In patent US20260098102A1 (NATIONAL UNIVERSITY CORPORATION KOBE UNIVERSITY, published 2026):

T1: mouse SIRPA variant hmSIRPA_Δ0 (mouse (with human residues), UniProt P97797 35-513)
T1 construct: FLAG-tagged (pFLAG V5-DEST), on 293α cells
T1 chain: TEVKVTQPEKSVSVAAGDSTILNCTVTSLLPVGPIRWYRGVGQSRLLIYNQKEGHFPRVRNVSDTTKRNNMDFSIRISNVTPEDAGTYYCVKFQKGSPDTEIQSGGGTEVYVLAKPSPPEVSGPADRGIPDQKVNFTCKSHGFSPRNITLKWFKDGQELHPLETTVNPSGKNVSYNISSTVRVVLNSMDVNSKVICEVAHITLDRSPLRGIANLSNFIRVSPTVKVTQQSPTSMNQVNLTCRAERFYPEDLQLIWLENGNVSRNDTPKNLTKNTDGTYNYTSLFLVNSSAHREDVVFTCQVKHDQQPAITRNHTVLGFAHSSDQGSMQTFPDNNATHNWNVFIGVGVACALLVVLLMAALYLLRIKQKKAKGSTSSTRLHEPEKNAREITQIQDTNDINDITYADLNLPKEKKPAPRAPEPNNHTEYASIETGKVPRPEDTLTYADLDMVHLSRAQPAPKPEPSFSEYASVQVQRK

T2: mouse SIRPA variant hmSIRPA_Δ2 (mouse (with human residues), UniProt P97797 35-513)
T2 construct: FLAG-tagged (pFLAG V5-DEST), on 293α cells; also called hmSIRPA_Δ42 [sic]
T2 chain: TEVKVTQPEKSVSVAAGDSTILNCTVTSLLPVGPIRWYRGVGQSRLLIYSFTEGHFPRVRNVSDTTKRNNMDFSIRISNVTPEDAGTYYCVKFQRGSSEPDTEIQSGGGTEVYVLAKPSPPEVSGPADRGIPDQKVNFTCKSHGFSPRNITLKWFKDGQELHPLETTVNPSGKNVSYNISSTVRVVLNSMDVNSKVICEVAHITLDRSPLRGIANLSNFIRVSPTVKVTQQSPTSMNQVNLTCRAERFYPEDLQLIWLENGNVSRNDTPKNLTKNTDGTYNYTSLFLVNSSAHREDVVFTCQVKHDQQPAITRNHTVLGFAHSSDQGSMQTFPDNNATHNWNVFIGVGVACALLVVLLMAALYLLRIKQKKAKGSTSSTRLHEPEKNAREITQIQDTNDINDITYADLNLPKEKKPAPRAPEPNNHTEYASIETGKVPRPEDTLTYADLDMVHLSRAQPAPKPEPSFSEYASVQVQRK

T3: mouse SIRPA_129 (mouse (129), UniProt P97797 32-513)
T3 construct: FLAG-tagged (pFLAG V5-DEST), on 293α cells; also called 129sv
T3 chain: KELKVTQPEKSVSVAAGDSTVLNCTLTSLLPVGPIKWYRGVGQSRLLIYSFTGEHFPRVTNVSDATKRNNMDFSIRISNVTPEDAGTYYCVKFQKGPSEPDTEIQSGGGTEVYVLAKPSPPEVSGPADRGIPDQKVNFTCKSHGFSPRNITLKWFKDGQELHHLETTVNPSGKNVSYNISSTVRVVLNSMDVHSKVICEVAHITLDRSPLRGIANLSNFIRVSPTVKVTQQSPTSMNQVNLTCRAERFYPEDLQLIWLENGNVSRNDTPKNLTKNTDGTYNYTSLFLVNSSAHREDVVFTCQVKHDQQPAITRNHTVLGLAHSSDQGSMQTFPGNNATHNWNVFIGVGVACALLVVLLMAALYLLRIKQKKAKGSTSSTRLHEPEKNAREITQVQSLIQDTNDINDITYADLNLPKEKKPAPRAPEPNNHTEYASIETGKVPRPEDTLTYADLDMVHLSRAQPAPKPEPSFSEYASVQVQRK


Columns and labels:
[1] = molecular target: T1, mouse SIRPA variant hmSIRPA_Δ0; test: cell-based ELISA on 293α cells expressing FLAG-tagged hmSIRPA_Δ0; Abs 490 normalized to FLAG tag [i]
Description: (§1) After the culture supernatant of 293α cells into which the pFLAG V5-DEST-hmSIRPA_Δ0, Δ1, and Δ2 expression vector prepared in 2)-1-2-2 was introduced and the pFLAG V5-DEST-introduced 293α cells was removed, 50 μL per well of four different D13 humanized anti-human SIRPA antibodies and a chimeric anti-human SIRPA antibody diluted with 5% FBS-containing PBS to a final concentration of 10,000 ng/mL were added to these cells, and the mixture was allowed to stand at 4° C. for one hour. Further, 50 μL per well of an anti-FLAG M2 antibody (SIGMA) diluted with 5% FBS-containing PBS to a final concentration of 10,000 ng/mL was added to a well for detecting expression of each SIRPA construct, and the mixture was allowed to stand at 4° C. for one hour. Thereafter, binding to each construct was evaluated in the same manner as in the evaluation of the binding activity of the human SIRPA. Binding of anti-human SIRPA antibodies to each construct was standardized by expression of the FLAG tag.

[2] = molecular target: T4, human SIRPA_V10 (human, UniProt P78324 31-504); test: cell-based ELISA on 293α cells expressing FLAG-tagged SIRPA_V10; Abs 490 normalized to FLAG tag [ii]
T4 construct: FLAG-tagged (pFLAG V5-DEST), on 293α cells; also called human SIRPA Variant 10
T4 sequence (P78324 other isoform, or with tags, fused parts or gaps limits assumed): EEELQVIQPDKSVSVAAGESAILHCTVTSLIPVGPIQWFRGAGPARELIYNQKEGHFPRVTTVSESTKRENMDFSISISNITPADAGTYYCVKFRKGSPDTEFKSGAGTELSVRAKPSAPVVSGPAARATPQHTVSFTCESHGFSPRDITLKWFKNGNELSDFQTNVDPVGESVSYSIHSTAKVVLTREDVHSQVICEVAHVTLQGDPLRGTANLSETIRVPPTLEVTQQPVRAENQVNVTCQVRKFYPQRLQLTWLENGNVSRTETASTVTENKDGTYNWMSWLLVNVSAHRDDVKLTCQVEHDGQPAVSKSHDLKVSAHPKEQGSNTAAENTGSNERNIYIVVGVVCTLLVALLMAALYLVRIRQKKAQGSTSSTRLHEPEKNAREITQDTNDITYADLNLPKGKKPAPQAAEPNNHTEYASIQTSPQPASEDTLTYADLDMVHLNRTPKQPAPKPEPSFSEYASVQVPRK
Description: (§2) The 293a cells, described in Example 1)-6, were prepared at 5× 10⁵ cells/mL in a 10% FBS-containing DMEM medium. pFLAG V5-DEST-SIRPA_V1-V10, pFLAG V5-DEST-monkey SIRPA, pFLAG V5-DEST-mouse SIRPA, or pFLAG V5-DEST was introduced into the cells using Lipofectamine LTX (Invitrogen), and 100 μL each was aliquoted to a 96-well plate (Corning Incorporated) and cultured overnight in a 10% FBS-containing DMEM medium at 37° C. under a 5% CO₂ condition. The obtained introduced cells were used for cell-based ELISA in a state that they adhered. After the culture supernatant was removed, 50 μL per well of hD13_HIL3, hD13_HIL4h, hD13_H2L2, hD13_H2L3, or cD13 prepared in Examples 6 and 7 or a control antibody was added to each of various SIRPA genes-introduced cells at a final concentration of 0 to 10,000 ng/ml, and the mixture was allowed to stand at 4° C. for one hour. Thereafter, binding to human SIRPA was evaluated in the same manner as in Example 5-1.

[3] = molecular target: T2, mouse SIRPA variant hmSIRPA_Δ2; test: cell-based ELISA on 293α cells expressing FLAG-tagged hmSIRPA_Δ2; Abs 490 normalized to FLAG tag [iii]
Description: as §1

[4] = molecular target: T3, mouse SIRPA_129; test: cell-based ELISA on 293α cells expressing FLAG-tagged mouse SIRPA (129sv); Abs 490 normalized to FLAG tag [iii]
Description: as §2

Row | Binder | binding result [1] | EC50 (read off the curve) [2] | binding result [3] | binding result [4]
1 | human chimeric anti-SIRPA antibody cD13 (antibody, human IgG4 S228P, kappa, F234A L235A, V domains shown, Human IgG4proFALA heavy chain, human kappa light chain; also called cD13 (IgG4pf); human chimeric antibody D13) VH: EVQLVESGGGLVQPGRSLKLSCLASGFTFSDYGMIWVRQAPGKGLEWVASISSSSSYIYYADTVKGRFTISRENAKNTLFLHMTSLRSEDTALYYCARRYYGFNYPFDYWGQGVMVTVSS VL: DTVLTQSPALAVSLGQRVTISCGASKSVRTYMHWYQQKSGQQPKLLIYSASNLEAGVPSRFSGSGSGTDFTLTIDPVEADDIANYYCQQSNEPPYTFGAGTKLELKR | binds | ~0.03 µg/mL | no binding (tested: 10000 ng/mL) | no binding (tested: 10000 ng/mL)
2 | humanized anti-SIRPA antibody hD13_H1L3 (antibody, human IgG4 S228P, kappa, F234A L235A, V domains shown, hH1 heavy chain (IgG4proFALA) and hL3 kappa light chain; also called hD13_HIL3; HIL3 antibody) VH: QVQLVESGGGVVQPGRSLRLSCAASGFTFSDYGMIWVRQAPGKGLEWVASISSSSSYIYYADSVKGRFTISRDNSKNRLYLQMNSLRAEDTAVYYCARRYYGFNYPFDYWGQGTMVTVSS VL: DTQLTQSPSSLSASVGQRVTITCGASKSVRTYMHWYQQKPGKQPKLLIYSASNLEAGVPSRFSGSGSGTDFTLTISSLQPEDFATYYCQQSNEPPYTFGQGTKLEIKR | binds | ~0.03 µg/mL | no binding (tested: 10000 ng/mL) | no binding (tested: 10000 ng/mL)
3 | humanized anti-SIRPA antibody hD13_H1L4 (antibody, human IgG4 S228P, kappa, F234A L235A, V domains shown, hH1 heavy chain (IgG4proFALA) and hL4 kappa light chain; also called hD13_HIL4; hD13_HIL4h) VH: QVQLVESGGGVVQPGRSLRLSCAASGFTFSDYGMIWVRQAPGKGLEWVASISSSSSYIYYADSVKGRFTISRDNSKNRLYLQMNSLRAEDTAVYYCARRYYGFNYPFDYWGQGTMVTVSS VL: DTVLTQSPDSLAVSLGQRATINCGASKSVRTYMHWYQQKPGQQPKLLIYSASNLEAGVPSRFSGSGSGTDFTLTISSLQAEDVAVYYCQQSNEPPYTFGQGTKVEIKR | binds | ~0.03 µg/mL | no binding (tested: 10000 ng/mL) | no binding (tested: 10000 ng/mL)
4 | humanized anti-SIRPA antibody hD13_H2L2 (antibody, human IgG4 S228P, kappa, F234A L235A, V domains shown, hH2 heavy chain (IgG4proFALA) and hL2 kappa light chain; also called H2L2 antibody) VH: EVQLVESGGGVVQPGRSLRLSCAASGFTFSDYGMIWVRQAPGKGLEWVASISSSSSYIYYADSVKGRFTISRDNSKNTLYLQMNSLRAEDTAVYYCARRYYGFNYPFDYWGQGTMVTVSS VL: AIQLTQSPSSLSASVGQRVTITCGASKSVRTYMHWYQQKPGKAPKLLIYSASNLEAGVPSRFSGSGSGTDFTLTISSLQPEDFATYYCQQSNEPPYTFGQGTKLEIKR | binds | ~0.03 µg/mL | no binding (tested: 10000 ng/mL) | no binding (tested: 10000 ng/mL)
5 | humanized anti-SIRPA antibody hD13_H2L3 (antibody, human IgG4 S228P, kappa, F234A L235A, V domains shown, hH2 heavy chain (IgG4proFALA) and hL3 kappa light chain; also called H2L3 antibody) VH: EVQLVESGGGVVQPGRSLRLSCAASGFTFSDYGMIWVRQAPGKGLEWVASISSSSSYIYYADSVKGRFTISRDNSKNTLYLQMNSLRAEDTAVYYCARRYYGFNYPFDYWGQGTMVTVSS VL: DTQLTQSPSSLSASVGQRVTITCGASKSVRTYMHWYQQKPGKQPKLLIYSASNLEAGVPSRFSGSGSGTDFTLTISSLQPEDFATYYCQQSNEPPYTFGQGTKLEIKR | binds | ~0.03 µg/mL | no binding (tested: 10000 ng/mL) | no binding (tested: 10000 ng/mL)
